T1: H16_B0227 (H-NS-like DNA-binding protein) (Ralstonia eutropha H16) (UniProt Q0K4P6)
T1 sequence: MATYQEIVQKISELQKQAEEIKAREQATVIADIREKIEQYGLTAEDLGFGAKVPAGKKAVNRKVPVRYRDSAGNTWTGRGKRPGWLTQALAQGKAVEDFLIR

T2: H16_B1672 (HTH XRE-family like protein) (Ralstonia eutropha H16) (UniProt Q0K0L7)
T2 sequence: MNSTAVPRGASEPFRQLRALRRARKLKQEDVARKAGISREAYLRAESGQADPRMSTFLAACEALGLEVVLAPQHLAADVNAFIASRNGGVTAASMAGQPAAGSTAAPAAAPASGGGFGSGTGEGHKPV

T3: PpiB (peptidyl-prolyl cis-trans isomerase) (Ralstonia eutropha H16?) (UniProt Q0KCB2)
T3 sequence: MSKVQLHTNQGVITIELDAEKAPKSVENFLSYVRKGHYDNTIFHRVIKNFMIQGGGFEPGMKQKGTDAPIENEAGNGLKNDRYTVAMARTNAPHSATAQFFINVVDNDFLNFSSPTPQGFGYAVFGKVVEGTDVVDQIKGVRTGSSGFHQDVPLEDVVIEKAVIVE

T4: H16_B1672 (HTH XRE-family like protein) (Ralstonia eutropha H16, UniProt Q0K0L7 1-128)
T4 sequence: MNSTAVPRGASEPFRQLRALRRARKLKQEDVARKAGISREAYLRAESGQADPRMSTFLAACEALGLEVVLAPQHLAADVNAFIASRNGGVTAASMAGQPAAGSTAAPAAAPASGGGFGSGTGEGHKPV

B1: PphaP1 100-mer (MG0235/MG0236), EMSA (dsDNA)
DNA 1: TGGCGTCACAGCCGCTCCCGTGTATCGCCAGCAACGTTGTTTGTGCATTGCACAAAATCCACTTGACATTGGATCTGGCGCCCCTAAAATAGGAATTGTT
DNA 2: AACAATTCCTATTTTAGGGGCGCCAGATCCAATGTCAAGTGGATTTTGTGCAATGCACAAACAACGTTGCTGGCGATACACGGGAGCGGCTGTGACGCCA

Legend:
[1] = molecular target: T1, H16_B0227 (H-NS-like DNA-binding protein) (Ralstonia eutropha H16); test: EMSA; conditions: EMSA: labeled DNA in TBE/glycerin-bromophenol blue with herring sperm DNA, 15 min at 30 C, 6% native PAGE at 4 C (protein eluted in 100 mM Tris-HCl pH 8, 150 mM)
[2] = molecular target: T2, H16_B1672 (HTH XRE-family like protein) (Ralstonia eutropha H16); test: EMSA; conditions: EMSA: labeled DNA in TBE/glycerin-bromophenol blue with herring sperm DNA, 15 min at 30 C, 6% native PAGE at 4 C (protein eluted in 100 mM Tris-HCl pH 8, 150 mM)
[3] = molecular target: T3, PpiB (peptidyl-prolyl cis-trans isomerase) (Ralstonia eutropha H16?); test: EMSA; conditions: EMSA: labeled DNA in TBE/glycerin-bromophenol blue with herring sperm DNA, 15 min at 30 C, 6% native PAGE at 4 C (protein eluted in 100 mM Tris-HCl pH 8, 150 mM)
[4] = molecular target: T4, H16_B1672 (HTH XRE-family like protein); test: EMSA; conditions: EMSA: labeled DNA in TBE/glycerin-bromophenol blue with herring sperm DNA, 15 min at 30 C, 6% native PAGE at 4 C (protein eluted in 100 mM Tris-HCl pH 8, 150 mM)
[5] = molecular target: T4, H16_B1672 (HTH XRE-family like protein); test: EMSA; EMSA: labeled DNA in TBE/glycerin-bromophenol blue with herring sperm DNA, 15 min at 30 C, 6% native PAGE at 4 C (protein eluted in 100 mM Tris-HCl pH 8, 150 mM NaCl, 1 mM EDTA, 2.5 mM desthiobiotin); pull-down: crude extract, 0.5x TBE, salmon sperm DNA, 1 h at 8 C; conditions: protein: recombinant; tags: Strep-tag; chain copies: 2; label: 5'-32P on MG0235; blunt

Row | Molecule | binding [1] | binding [3] | further results
1 | ATCGGATCCGGGTGCTGCGCAATGCGGGCTTCAGCGCAGTTGGCGTGCCCGACAGCCGCATGGCCGGCTTCGTGCAAGGTGGGCGGGCGGGCGACAGGCTTCTGCCGCGGGTGCGTAGGTGGGAAGGTGGCGCTGGTGCACTGAGAAGTGCTGCGCGCGGCTCAGGTGCCGTCGATGTCGAATGGACTGGCTGCGGGAGGCTCCGGTCGAATTCGAT (double strand) [PphaZ5 PCR fragment, EMSA] | no binding | no binding | Kd [2]: 1500 nM
2 | ATCGAATTCGGACCCGCGTCCGAGGTATCGCAGCGCCTGGCTGACATCATGCTTGAGGCGTTGCGTCCAGTGTGATGGCGGCGGCGGGATGGCTGGTCACGCCCTATCGGATCGGCGGTGAACCATCGAATTCCGGCCGTTCACGTAACAGGATGCGGAAGACCGGTACGGGGTCGCAAGCAAGCGGGCCCCGCCAGCGGCGCGGCGCTTGATGTTTGGCGTTGCAGCAAGGCCTGTCCGACATATAGTGAAATCCTGGC (double strand) [PphaZ3 PCR fragment, EMSA] | no binding | no binding | binding [2]: no binding
3 | PphaZ5 PCR fragment, EMSA |  |  | Kd [4]: 1500 nM
4 | B1 |  |  | Kd [5]: 175 nM

From PMC11332829, “Elucidating regulation of polyhydroxyalkanoate metabolism in Ralstonia eutropha: Identification of transcriptional regulators from phasin and depolymerase genes”
